As usually defined, the Tm is the temperature at which the thermal transition is half complete.

A short description of the data set: melting temperature; melt of duplexes. Conditions: sodium 0.0675 M; strand 1 µM.
Regarding “CGACGTGCGGCATGTGCTG+CAGCACATGCTGCACGTCG ((((((((.((((((((((+)))))))))).))))))))”, the midpoint of thermal melting (Tm) is 62.7 °C.

As for “CGACGTGCATTATGTGCTG+CAGCACATCTGGCACGTCG ((((((((...((((((((+))))))))...))))))))”, the midpoint of thermal melting (Tm) amounted to 48.4 °C.

Regarding “CGACGTGCGGCATGTGCTG+CAGCACATTCTGCACGTCG ((((((((.(.((((((((+)))))))).).))))))))”, the midpoint of thermal melting (Tm) was found to be 53.1 °C. To “CGACGTGCCGGATGTGCTG+CAGCACATACGGCACGTCG ((((((((((.((((((((+)))))))).))))))))))” belongs 63.8 °C. As for “CGACGTGCCCAATGTGCTG+CAGCACATAATGCACGTCG ((((((((...((((((((+))))))))...))))))))”, the figure is 47.6 °C; as for “CGACGTGCATAATGTGCTG+CAGCACATTCCGCACGTCG ((((((((..(((((((((+)))))))))..))))))))”, 50.2 °C. Take “CGACGTGCAGTATGTGCTG+CAGCACATGGCGCACGTCG ((((((((...((((((((+))))))))...))))))))”: the Tm stood at 50.2 °C. To “CGACGTGCTTGATGTGCTG+CAGCACATTGCGCACGTCG ((((((((...((((((((+))))))))...))))))))” belongs 48.1 °C; to “CGACGTGCGTCATGTGCTG+CAGCACATTCCGCACGTCG (((((((((..((((((((+))))))))..)))))))))”, 52.8 °C. To “CGACGTGCCCTATGTGCTG+CAGCACATCATGCACGTCG ((((((((...((((((((+))))))))...))))))))” belongs 46.8 °C; to “CGACGTGCTCTATGTGCTG+CAGCACATGATGCACGTCG ((((((((...((((((((+))))))))...))))))))”, 51.1 °C.

Take “CGACGTGCTGGATGTGCTG+CAGCACATCGCGCACGTCG ((((((((..(((((((((+)))))))))..))))))))”: the midpoint of thermal melting (Tm) was 54.8 °C. To “CGACGTGCGGGATGTGCTG+CAGCACATTAAGCACGTCG ((((((((...((((((((+))))))))...))))))))” belongs 53.9 °C. As for “CGACGTGCCCTATGTGCTG+CAGCACATTGAGCACGTCG ((((((((.(.((((((((+)))))))).).))))))))”, the figure is 51.8 °C; as for “CGACGTGCCGTATGTGCTG+CAGCACATATCGCACGTCG ((((((((..(((((((((+)))))))))..))))))))”, 51.8 °C; as for “CGACGTGCTCGATGTGCTG+CAGCACATGTTGCACGTCG ((((((((...((((((((+))))))))...))))))))”, 49.5 °C. Consider “CGACGTGCCACATGTGCTG+CAGCACATCCGGCACGTCG (((((((((..((((((((+))))))))..)))))))))”, for which the Tm was found to be 52.6 °C.

Regarding “CGACGTGCGTTATGTGCTG+CAGCACATGCCGCACGTCG (((((((((..((((((((+))))))))..)))))))))”, the Tm was 53.7 °C. To “CGACGTGCTTAATGTGCTG+CAGCACATCCTGCACGTCG ((((((((...((((((((+))))))))...))))))))” belongs 48.4 °C; to “CGACGTGCTCTATGTGCTG+CAGCACATACTGCACGTCG ((((((((..(((((((((+)))))))))..))))))))”, 49.5 °C; to “CGACGTGCGTGATGTGCTG+CAGCACATGATGCACGTCG ((((((((.(.((((((((+)))))))).).))))))))”, 54 °C. To “CGACGTGCACAATGTGCTG+CAGCACATAGTGCACGTCG ((((((((((.((((((((+)))))))).))))))))))” belongs 53.5 °C; to “CGACGTGCCTCATGTGCTG+CAGCACATGAAGCACGTCG ((((((((.((((((((((+)))))))))).))))))))”, 56.3 °C; to “CGACGTGCAACATGTGCTG+CAGCACATGTGGCACGTCG ((((((((.((((((((((+)))))))))).))))))))”, 59.3 °C. As for “CGACGTGCGTTATGTGCTG+CAGCACATTATGCACGTCG ((((((((.(.((((((((+)))))))).).))))))))”, the figure is 53 °C; as for “CGACGTGCTGAATGTGCTG+CAGCACATGGCGCACGTCG ((((((((...((((((((+))))))))...))))))))”, 52.3 °C.

With “CGACGTGCGCTATGTGCTG+CAGCACATCTAGCACGTCG ((((((((...((((((((+))))))))...))))))))”, the Tm worked out at 50.4 °C.

Take “CGACGTGCTGAATGTGCTG+CAGCACATTGAGCACGTCG (((((((((.(((((((((+))))))))).)))))))))”: the Tm is 56.6 °C. “CGACGTGCAGTATGTGCTG+CAGCACATAAAGCACGTCG ((((((((..(((((((((+)))))))))..))))))))”: the Tm was found to be 51.7 °C.

As to “CGACGTGCGAAATGTGCTG+CAGCACATTTGGCACGTCG ((((((((.((((((((((+)))))))))).))))))))”, the Tm amounted to 57.3 °C. As for “CGACGTGCCTCATGTGCTG+CAGCACATGACGCACGTCG ((((((((.((((((((((+)))))))))).))))))))”, the figure is 52.7 °C. As for “CGACGTGCGGCATGTGCTG+CAGCACATCGCGCACGTCG (((((((((..((((((((+))))))))..)))))))))”, the figure is 55.2 °C; as for “CGACGTGCCTAATGTGCTG+CAGCACATTCCGCACGTCG ((((((((..(((((((((+)))))))))..))))))))”, 49.7 °C. As for “CGACGTGCGCGATGTGCTG+CAGCACATAGTGCACGTCG ((((((((.(.((((((((+)))))))).).))))))))”, the figure is 53.7 °C; as for “CGACGTGCTCGATGTGCTG+CAGCACATCAAGCACGTCG (((((((((.(((((((((+))))))))).)))))))))”, 57.2 °C; as for “CGACGTGCTTCATGTGCTG+CAGCACATCAGGCACGTCG ((((((((.(.((((((((+)))))))).).))))))))”, 49.1 °C.

As to “CGACGTGCCCCATGTGCTG+CAGCACATCAAGCACGTCG ((((((((...((((((((+))))))))...))))))))”, the Tm is 47.3 °C. For the substance “CGACGTGCCTTATGTGCTG+CAGCACATGGGGCACGTCG (((((((((..((((((((+))))))))..)))))))))”, the Tm was 56.1 °C. “CGACGTGCAGCATGTGCTG+CAGCACATGATGCACGTCG (((((((((.(((((((((+))))))))).)))))))))”: the midpoint of thermal melting (Tm) was determined as 61.3 °C. For “CGACGTGCATGATGTGCTG+CAGCACATGAAGCACGTCG ((((((((.(.((((((((+)))))))).).))))))))”, the Tm worked out at 50.3 °C. As for “CGACGTGCCCTATGTGCTG+CAGCACATATCGCACGTCG ((((((((..(((((((((+)))))))))..))))))))”, the figure is 48.1 °C; as for “CGACGTGCTTTATGTGCTG+CAGCACATGATGCACGTCG ((((((((.(.((((((((+)))))))).).))))))))”, 52.1 °C. To “CGACGTGCGTGATGTGCTG+CAGCACATGGTGCACGTCG ((((((((...((((((((+))))))))...))))))))” belongs 47.8 °C; to “CGACGTGCATCATGTGCTG+CAGCACATCACGCACGTCG ((((((((.(.((((((((+)))))))).).))))))))”, 46.6 °C. As for “CGACGTGCCTAATGTGCTG+CAGCACATGTAGCACGTCG ((((((((...((((((((+))))))))...))))))))”, the figure is 51.8 °C; as for “CGACGTGCAATATGTGCTG+CAGCACATTGCGCACGTCG ((((((((...((((((((+))))))))...))))))))”, 50 °C; as for “CGACGTGCACAATGTGCTG+CAGCACATACAGCACGTCG ((((((((...((((((((+))))))))...))))))))”, 45.4 °C.

As for “CGACGTGCTAAATGTGCTG+CAGCACATTAAGCACGTCG (((((((((.(((((((((+))))))))).)))))))))”, the Tm amounted to 55.8 °C.

On to “CGACGTGCCCCATGTGCTG+CAGCACATTCGGCACGTCG (((((((((..((((((((+))))))))..)))))))))”, for which the Tm is 51.5 °C.

On to “CGACGTGCACAATGTGCTG+CAGCACATAACGCACGTCG ((((((((...((((((((+))))))))...))))))))”, for which the Tm worked out at 45.3 °C.

“CGACGTGCCGCATGTGCTG+CAGCACATCACGCACGTCG ((((((((...((((((((+))))))))...))))))))”: the Tm is 48.3 °C. To “CGACGTGCCACATGTGCTG+CAGCACATGTCGCACGTCG ((((((((.((((((((((+)))))))))).))))))))” belongs 56.4 °C; to “CGACGTGCTATATGTGCTG+CAGCACATTATGCACGTCG ((((((((...((((((((+))))))))...))))))))”, 51.6 °C. As for “CGACGTGCAAGATGTGCTG+CAGCACATGAAGCACGTCG ((((((((...((((((((+))))))))...))))))))”, the figure is 52.2 °C.

“CGACGTGCCGCATGTGCTG+CAGCACATTTTGCACGTCG ((((((((...((((((((+))))))))...))))))))”: the Tm was determined as 46.2 °C. Consider “CGACGTGCGTCATGTGCTG+CAGCACATGCCGCACGTCG (((((((((.(((((((((+))))))))).)))))))))”, for which the Tm was determined as 59.9 °C. To “CGACGTGCGGGATGTGCTG+CAGCACATGGCGCACGTCG (((((((((..((((((((+))))))))..)))))))))” belongs 57.5 °C.

As to “CGACGTGCTTGATGTGCTG+CAGCACATAATGCACGTCG ((((((((.(.((((((((+)))))))).).))))))))”, the Tm was 52.1 °C. To “CGACGTGCAGGATGTGCTG+CAGCACATAAAGCACGTCG ((((((((...((((((((+))))))))...))))))))” belongs 50.6 °C. As for “CGACGTGCCAGATGTGCTG+CAGCACATTCGGCACGTCG (((((((((..((((((((+))))))))..)))))))))”, the figure is 56.2 °C; as for “CGACGTGCGCTATGTGCTG+CAGCACATACCGCACGTCG (((((((((.(((((((((+))))))))).)))))))))”, 54.8 °C. As for “CGACGTGCAGTATGTGCTG+CAGCACATCTGGCACGTCG ((((((((...((((((((+))))))))...))))))))”, the figure is 51.4 °C; as for “CGACGTGCGGTATGTGCTG+CAGCACATTCAGCACGTCG ((((((((.(.((((((((+)))))))).).))))))))”, 54.2 °C; as for “CGACGTGCACTATGTGCTG+CAGCACATGCGGCACGTCG ((((((((...((((((((+))))))))...))))))))”, 43.3 °C. As to “CGACGTGCACTATGTGCTG+CAGCACATGTGGCACGTCG ((((((((...((((((((+))))))))...))))))))”, the Tm was 48 °C.

Consider “CGACGTGCCCAATGTGCTG+CAGCACATTGAGCACGTCG ((((((((.((((((((((+)))))))))).))))))))”, for which the Tm stood at 57.6 °C.

For the origin of these results see the array DNA melting data of Ke et al..
